B1: H3K27me2 (peptide)
chain: QLATKAARKSAPATG
modifications: dimethyl-Lys27 (mature numbering; K28 of precursor). Taken as the H3K27me2 peptide of the Figure 5C table; limits are mature 19-33 by convention for Eed binding peptides, not given

Ends that are not written are not given here. Me3 = trimethyl-lysine; Me2 = dimethyl-lysine

Sequence of ΔEed (Eed residues 77 to 441) (O75530 77-441, stated change not applied): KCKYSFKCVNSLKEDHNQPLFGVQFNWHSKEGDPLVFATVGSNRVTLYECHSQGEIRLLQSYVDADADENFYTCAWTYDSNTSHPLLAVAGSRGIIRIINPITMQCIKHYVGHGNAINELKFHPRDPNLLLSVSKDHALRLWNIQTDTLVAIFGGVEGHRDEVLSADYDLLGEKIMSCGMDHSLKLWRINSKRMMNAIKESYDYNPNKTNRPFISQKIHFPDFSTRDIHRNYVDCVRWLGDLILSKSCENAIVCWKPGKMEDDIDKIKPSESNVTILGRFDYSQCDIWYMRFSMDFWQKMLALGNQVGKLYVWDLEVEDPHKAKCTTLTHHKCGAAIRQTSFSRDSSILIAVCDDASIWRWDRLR

The assay has as its target ΔEed (Eed residues 77 to 441) (UniProt O75530 77-441). The assay is described as follows: ITC. A general note: In ITC the heat of successive injections is recorded.
As usually defined, the Kd is the concentration at which binding is half-saturated. Lower therefore signals tighter binding. The molecule RLQAQRK(Me2)FAQSQY [Jarid2-K116me2 peptide] yielded a Kd of 10.4 µM.

In turn, QLATKAARKSAPATG (trimethyl-lysine at K27) [H3K27me3 peptide] came in with a Kd of 36.4 µM.

B1 came in with a Kd of 68 µM.

Molecule RLQAQRK(Me3)FAQSQY [Jarid2-K116me3 peptide] came in with a Kd of 3.4 µM.

Values taken from paper PMC4352895 (2015).
